Usually stoichiometry N stands for a count of units in the complex or per binding partner.

What all share (experiment): cryo-EM structure
Holding throughout (settings): remark: other sources report otherwise

For assay [1], the target named is T1, human DNA polymerase θ helicase domain (residues 1-894) (human), O75417.
In assay [2] the target is T1, human DNA polymerase θ helicase domain …. This is another data set of the same source.
The target is the same in assay [3]. The source holds these as a separate data set.

Where “and” joins values, the source holds several entries; their conditions need not be identical. Identical values can stand only once.

B1: human DNA polymerase θ helicase domain (residues 1-894), O75417 1-894 (domain or fragment)
chain: MNLLRRSGKRRRSESGSDSFSGSGGDSSASPQFLSGSVLSPPPGLGRCLKAAAAGECKPTVPDYERDKLLLANWGLPKAVLEKYHSFGVKKMFEWQAECLLLGQVLEGKNLVYSAPTSAGKTLVAELLILKRVLEMRKKALFILPFVSVAKEKKYYLQSLFQEVGIKVDGYMGSTSPSRHFSSLDIAVCTIERANGLINRLIEENKMDLLGMVVVDELHMLGDSHRGYLLELLLTKICYITRKSASCQADLASSLSNAVQIVGMSATLPNLELVASWLNAELYHTDFRPVPLLESVKVGNSIYDSSMKLVREFEPMLQVKGDEDHVVSLCYETICDNHSVLLFCPSKKWCEKLADIIAREFYNLHHQAEGLVKPSECPPVILEQKELLEVMDQLRRLPSGLDSVLQKTVPWGVAFHHAGLTFEERDIIEGAFRQGLIRVLAATSTLSSGVNLPARRVIIRTPIFGGRPLDILTYKQMVGRAGRKGVDTVGESILICKNSEKSKGIALLQGSLKPVRSCLQRREGEEVTGSMIRAILEIIVGGVASTSQDMHTYAACTFLAASMKEGKQGIQRNQESVQLGAIEACVMWLLENEFIQSTEASDGTEGKVYHPTHLGSATLSSSLSPADTLDIFADLQRAMKGFVLENDLHILYLVTPMFEDWTTIDWYRFFCLWEKLPTSMKRVAELVGVEEGFLARCVKGKVVARTERQHRQMAIHKRFFTSLVLLDLISEVPLREINQKYGCNRGQIQSLQQSAAVYAGMITVFSNRLGWHNMELLLSQFQKRLTFGIQRELCDLVRVSLLNAQRARVLYASGFHTVADLARANIVEVEVILKNAVPFKSARKAVDEEEEAVEERRNMRTIWVTGRKGLTEREAAALIVEEARMILQQDLVEM
As to B1, the stoichiometry N in assay [1] is 2 and 4; in assay [2] it was 2; in assay [3], 2.

(Values after publication PMC12009414.)
